Sequences and labels used below:
B1: IKZF1 (parent)
chain: RDPFECNMCGYHSQDRYEFSSHIT

Experimental findings from the supplement of paper PMC10567573 are described below.
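Further: lentivirally expressed fusions sorted by FACS into six bins by GFP to DsRed ratio, PSI derived from sequencing read proportions per bin multiplied by bin number.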

The series covers variants of B1. Briefly: protein stability index of a GFP-peptide fusion (GPS, HEK-293T) (PSI 1-6); higher = more stable. As to conditions: c terminus: a fixed tail appended.
Turning to RDPFWCNMCGYHSQDRYEFSSHIT [E5W], the protein stability index worked out at 1.59.
Take RDPFACNMCGYHSQDRYEFSSHIT [E5A]: the protein stability index came to 2.13.
Take RDPFSCNMCGYHSQDRYEFSSHIT [E5S]: the protein stability index was 1.33.
Next, RDPFRCNMCGYHSQDRYEFSSHIT [E5R]: 1.92; RDPFTCNMCGYHSQDRYEFSSHIT [E5T]: 2.38; RDPFFCNMCGYHSQDRYEFSSHIT [E5F]: 1.78.
On to RDPFKCNMCGYHSQDRYEFSSHIT [E5K], for which the protein stability index is 2.07.
Turning to RDPFHCNMCGYHSQDRYEFSSHIT [E5H], the protein stability index is 1.9.
Next, RDPFYCNMCGYHSQDRYEFSSHIT [E5Y]: 1.85; RDPFQCNMCGYHSQDRYEFSSHIT [E5Q]: 2.06.
Next, RDPFLCNMCGYHSQDRYEFSSHIT [E5L]: 2.08.
Next, RDPFPCNMCGYHSQDRYEFSSHIT [E5P]: 1.91; RDPFCCNMCGYHSQDRYEFSSHIT [E5C]: 2.11.
In the case of RDPFMCNMCGYHSQDRYEFSSHIT [E5M], the protein stability index is 1.88.
Next, RDPFDCNMCGYHSQDRYEFSSHIT [E5D]: 2.7; RDPFNCNMCGYHSQDRYEFSSHIT [E5N]: 1.71.
Next, RDPFICNMCGYHSQDRYEFSSHIT [E5I]: 2.38.
For RDPFGCNMCGYHSQDRYEFSSHIT [E5G], the protein stability index was determined as 1.82.
Regarding RDPFVCNMCGYHSQDRYEFSSHIT [E5V], the protein stability index was 2.01.
Consider RDPFECNICGYHSQDRYEFSSHIT [M8I], for which the protein stability index was 2.16.
On to RDPFECNSCGYHSQDRYEFSSHIT [M8S], for which the protein stability index amounted to 2.4.
With RDPFECNFCGYHSQDRYEFSSHIT [M8F], the protein stability index was 2.23.
As to RDPFECNVCGYHSQDRYEFSSHIT [M8V], the protein stability index is 2.3.
Take RDPFECNWCGYHSQDRYEFSSHIT [M8W]: the protein stability index amounted to 2.34.
To RDPFECNECGYHSQDRYEFSSHIT [M8E] belongs 3.08; to RDPFECNRCGYHSQDRYEFSSHIT [M8R], 2.02.
Next, RDPFECNACGYHSQDRYEFSSHIT [M8A]: 1.81.
Next, RDPFECNGCGYHSQDRYEFSSHIT [M8G]: 2.07.
In the case of RDPFECNCCGYHSQDRYEFSSHIT [M8C], the protein stability index was 2.19.
Next, RDPFECNQCGYHSQDRYEFSSHIT [M8Q]: 2.21.
Turning to RDPFECNHCGYHSQDRYEFSSHIT [M8H], the protein stability index came out at 2.17.
Next, RDPFECNKCGYHSQDRYEFSSHIT [M8K]: 2.52.
Regarding RDPFECNTCGYHSQDRYEFSSHIT [M8T], the protein stability index is 2.39.
Next, RDPFECNDCGYHSQDRYEFSSHIT [M8D]: 3.11.
Next, RDPFECNYCGYHSQDRYEFSSHIT [M8Y]: 2.4; RDPFECNLCGYHSQDRYEFSSHIT [M8L]: 2.18.
To RDPFECNPCGYHSQDRYEFSSHIT [M8P] belongs 2.64.
Turning to RDPFECNNCGYHSQDRYEFSSHIT [M8N], the protein stability index is 2.54.
To NDPFECNMCGYHSQDRYEFSSHIT [R1N] belongs 2.44; to CDPFECNMCGYHSQDRYEFSSHIT [R1C], 2.47; to VDPFECNMCGYHSQDRYEFSSHIT [R1V], 2.25.
Next, IDPFECNMCGYHSQDRYEFSSHIT [R1I]: 2.13; LDPFECNMCGYHSQDRYEFSSHIT [R1L]: 2.31; MDPFECNMCGYHSQDRYEFSSHIT [R1M]: 2.26.
Regarding ADPFECNMCGYHSQDRYEFSSHIT [R1A], the protein stability index was 2.63.
As for SDPFECNMCGYHSQDRYEFSSHIT [R1S], the protein stability index was 2.1.
For KDPFECNMCGYHSQDRYEFSSHIT [R1K], the protein stability index amounted to 2.15.
Next, GDPFECNMCGYHSQDRYEFSSHIT [R1G]: 2.49.
Next, TDPFECNMCGYHSQDRYEFSSHIT [R1T]: 2.23; DDPFECNMCGYHSQDRYEFSSHIT [R1D]: 2.73; FDPFECNMCGYHSQDRYEFSSHIT [R1F]: 1.88.
To QDPFECNMCGYHSQDRYEFSSHIT [R1Q] belongs 2.55; to HDPFECNMCGYHSQDRYEFSSHIT [R1H], 2.92.
As for WDPFECNMCGYHSQDRYEFSSHIT [R1W], the protein stability index came to 2.2.
To YDPFECNMCGYHSQDRYEFSSHIT [R1Y] belongs 1.73; to PDPFECNMCGYHSQDRYEFSSHIT [R1P], 2.43; to EDPFECNMCGYHSQDRYEFSSHIT [R1E], 2.67.
With RAPFECNMCGYHSQDRYEFSSHIT [D2A], the protein stability index was found to be 1.63.
To RKPFECNMCGYHSQDRYEFSSHIT [D2K] belongs 1.96.
Next, RPPFECNMCGYHSQDRYEFSSHIT [D2P]: 1.98; RRPFECNMCGYHSQDRYEFSSHIT [D2R]: 1.99.
Take RSPFECNMCGYHSQDRYEFSSHIT [D2S]: the protein stability index worked out at 1.73.
Regarding RWPFECNMCGYHSQDRYEFSSHIT [D2W], the protein stability index is 1.92.
As to RVPFECNMCGYHSQDRYEFSSHIT [D2V], the protein stability index was 2.21.
On to RHPFECNMCGYHSQDRYEFSSHIT [D2H], for which the protein stability index stood at 1.75.
Turning to RYPFECNMCGYHSQDRYEFSSHIT [D2Y], the protein stability index was 1.77.
For RNPFECNMCGYHSQDRYEFSSHIT [D2N], the protein stability index was 1.96.
Next, RFPFECNMCGYHSQDRYEFSSHIT [D2F]: 1.57; RLPFECNMCGYHSQDRYEFSSHIT [D2L]: 1.93; RGPFECNMCGYHSQDRYEFSSHIT [D2G]: 1.95.
To RQPFECNMCGYHSQDRYEFSSHIT [D2Q] belongs 2.04; to RIPFECNMCGYHSQDRYEFSSHIT [D2I], 2.2.
To RMPFECNMCGYHSQDRYEFSSHIT [D2M] belongs 1.68; to RTPFECNMCGYHSQDRYEFSSHIT [D2T], 1.82; to RCPFECNMCGYHSQDRYEFSSHIT [D2C], 2.19.
Turning to REPFECNMCGYHSQDRYEFSSHIT [D2E], the protein stability index is 2.18.
With RDPFECNMCTYHSQDRYEFSSHIT [G10T], the protein stability index came to 2.69.
To RDPFECNMCFYHSQDRYEFSSHIT [G10F] belongs 1.81.
To RDPFECNMCKYHSQDRYEFSSHIT [G10K] belongs 2.32; to RDPFECNMCEYHSQDRYEFSSHIT [G10E], 2.79; to RDPFECNMCDYHSQDRYEFSSHIT [G10D], 2.8.
For RDPFECNMCIYHSQDRYEFSSHIT [G10I], the protein stability index was found to be 1.92.
To RDPFECNMCQYHSQDRYEFSSHIT [G10Q] belongs 2.58; to RDPFECNMCMYHSQDRYEFSSHIT [G10M], 1.82; to RDPFECNMCHYHSQDRYEFSSHIT [G10H], 2.33.
Consider RDPFECNMCRYHSQDRYEFSSHIT [G10R], for which the protein stability index amounted to 2.13.
On to RDPFECNMCPYHSQDRYEFSSHIT [G10P], for which the protein stability index is 2.44.
RDPFECNMCLYHSQDRYEFSSHIT [G10L]: the protein stability index amounted to 2.08.
To RDPFECNMCAYHSQDRYEFSSHIT [G10A] belongs 2.16; to RDPFECNMCSYHSQDRYEFSSHIT [G10S], 2.7.
To RDPFECNMCCYHSQDRYEFSSHIT [G10C] belongs 2.49.
Turning to RDPFECNMCNYHSQDRYEFSSHIT [G10N], the protein stability index came to 2.4.
To RDPFECNMCVYHSQDRYEFSSHIT [G10V] belongs 2.07; to RDPFEANMCGYHSQDRYEFSSHIT [C6A], 2.5.
